From publication PMC11388081, “Targeted degradation of VEGF with bispecific aptamer-based LYTACs ameliorates pathological retinal angiogenesis”

Target: VEGF (HZ-1038, Proteintech) (UniProt P15692-4 27-191)
Assay: MST; strongest of V4-V6; Kd only in figure; 20 mM CaCl2; MST: 5 nM Cy5-LYTAC, 20 mM Tris-HCl pH 8.5, 20 mM KCl, 20 mM CaCl2, 0.1% Tween 20, 10 min, temperature not stated; pulldown: cell lysate with LYTAC in DPBS-Mg
Conditions: protein: commercial; chain copies: 2; biotin implied in pulldown; 23-bp linker duplex formed by both 5' ends, 3' single-stranded aptamer tails

Chain of VEGF (HZ-1038, Proteintech) (P15692 other isoform, or with tags, fused parts or gaps): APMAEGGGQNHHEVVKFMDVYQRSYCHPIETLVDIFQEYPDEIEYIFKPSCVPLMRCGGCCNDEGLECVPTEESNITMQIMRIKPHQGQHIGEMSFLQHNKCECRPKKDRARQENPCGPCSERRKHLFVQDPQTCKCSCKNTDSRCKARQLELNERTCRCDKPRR

B1: V5 (M6PR-A / VEGF-A2 LYTAC) (mixed)
DNA 1: CCCCCACACGTAAATCAGTCATAGGGCGCGTAGATGACGAGCAGTCCTAACATCGTTTAGGAC
DNA 2: TATGACTGATTTACGTGTGGGGGTGTGGGGGTGGACGGGCCGGGTAGA
modifications: 5'-phosphate on strand 1 (T4 DNA ligase step stated)
  binding result: binds
